Earlier results on two substances are cited in article PMC3135726.

In series [1] the target is hnRNP M PY-NLS (Homo sapiens) (UniProt P52272).
The target in series [2] is hnRNP A1 PY-NLS (Homo sapiens) (UniProt P09651).
Series [3] deals with Snurportin1 IBB (Homo sapiens) (UniProt O95149).
Series [4] has as its target Importin-α IBB (Homo sapiens) (UniProt P52292).
Another series concerns the target PTHrP (Homo sapiens) (UniProt P12272).

Chain of Importin-β (Q14974 whole entry): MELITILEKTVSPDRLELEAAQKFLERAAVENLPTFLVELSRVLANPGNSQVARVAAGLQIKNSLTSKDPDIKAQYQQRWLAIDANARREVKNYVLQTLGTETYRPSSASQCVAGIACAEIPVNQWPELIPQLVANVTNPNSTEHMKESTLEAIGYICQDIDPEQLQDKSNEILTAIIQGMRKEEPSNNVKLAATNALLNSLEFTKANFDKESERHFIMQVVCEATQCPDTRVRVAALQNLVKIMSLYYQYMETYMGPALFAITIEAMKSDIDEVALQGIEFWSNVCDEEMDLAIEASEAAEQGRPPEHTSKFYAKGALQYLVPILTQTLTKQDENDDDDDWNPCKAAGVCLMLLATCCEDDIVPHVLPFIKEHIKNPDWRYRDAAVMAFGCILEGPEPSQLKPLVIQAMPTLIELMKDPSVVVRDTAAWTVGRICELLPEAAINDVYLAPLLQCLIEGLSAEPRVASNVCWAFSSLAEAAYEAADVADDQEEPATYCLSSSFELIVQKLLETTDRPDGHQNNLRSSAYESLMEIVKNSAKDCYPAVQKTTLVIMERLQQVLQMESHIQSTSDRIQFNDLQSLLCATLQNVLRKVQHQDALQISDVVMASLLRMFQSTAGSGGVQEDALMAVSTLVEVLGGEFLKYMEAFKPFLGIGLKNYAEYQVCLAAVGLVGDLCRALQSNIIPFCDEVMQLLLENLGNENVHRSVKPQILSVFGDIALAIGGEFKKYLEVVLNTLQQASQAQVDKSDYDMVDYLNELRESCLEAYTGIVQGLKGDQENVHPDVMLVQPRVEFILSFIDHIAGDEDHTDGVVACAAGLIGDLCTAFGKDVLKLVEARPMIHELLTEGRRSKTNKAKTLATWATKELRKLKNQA
Chain of Kapβ2 (Q92973 whole entry): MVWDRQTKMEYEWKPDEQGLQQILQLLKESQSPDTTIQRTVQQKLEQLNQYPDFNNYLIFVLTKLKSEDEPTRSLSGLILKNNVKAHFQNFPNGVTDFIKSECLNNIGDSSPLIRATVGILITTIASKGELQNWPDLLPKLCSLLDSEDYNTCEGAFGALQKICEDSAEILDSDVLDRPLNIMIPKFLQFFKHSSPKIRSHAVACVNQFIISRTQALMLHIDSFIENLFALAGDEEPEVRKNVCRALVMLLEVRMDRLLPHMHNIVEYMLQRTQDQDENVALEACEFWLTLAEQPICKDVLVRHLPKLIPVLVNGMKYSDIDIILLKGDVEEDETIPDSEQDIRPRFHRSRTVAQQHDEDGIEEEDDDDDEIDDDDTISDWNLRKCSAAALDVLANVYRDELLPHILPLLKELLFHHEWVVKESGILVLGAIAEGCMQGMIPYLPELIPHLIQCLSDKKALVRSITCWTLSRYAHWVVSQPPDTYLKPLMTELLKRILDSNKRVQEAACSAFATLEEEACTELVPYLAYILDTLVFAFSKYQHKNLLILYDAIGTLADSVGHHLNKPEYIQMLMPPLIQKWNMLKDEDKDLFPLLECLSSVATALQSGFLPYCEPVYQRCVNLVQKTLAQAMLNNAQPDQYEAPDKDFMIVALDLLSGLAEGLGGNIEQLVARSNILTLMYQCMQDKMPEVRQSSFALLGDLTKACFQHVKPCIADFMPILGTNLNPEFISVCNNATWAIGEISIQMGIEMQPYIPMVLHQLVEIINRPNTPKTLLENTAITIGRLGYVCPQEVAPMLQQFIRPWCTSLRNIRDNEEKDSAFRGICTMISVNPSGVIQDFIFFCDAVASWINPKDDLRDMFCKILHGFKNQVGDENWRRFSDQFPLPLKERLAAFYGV
Chain of hnRNP M PY-NLS (Homo sapiens) (P52272 41-70): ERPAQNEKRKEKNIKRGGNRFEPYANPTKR
Chain of PTHrP (Homo sapiens) (P12272 37-72): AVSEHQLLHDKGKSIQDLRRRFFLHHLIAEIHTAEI
Chain of hnRNP A1 PY-NLS (Homo sapiens) (P09651 320-357): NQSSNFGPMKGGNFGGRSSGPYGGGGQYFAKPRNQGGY
Chain of Snurportin1 IBB (Homo sapiens) (O95149 8-76): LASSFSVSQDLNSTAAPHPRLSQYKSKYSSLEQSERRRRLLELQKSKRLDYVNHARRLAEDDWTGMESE

As for Kapβ2 (from UniProt Q92973), the Kd in series [1] is 10 nM; in series [2] it was 42 nM.
On to Importin-β (from UniProt Q14974), for which the Kd (in series [3]; in series [4]; with PTHrP (Homo sapiens)) was 2 nM throughout.

The term Kd denotes the equilibrium constant for the complex coming apart.
